Data: patent publication US20220308072A1

How the values were obtained:
[1] = target: Recombinant, his tagged full length human frataxin protein (Abcam ab95502) (human) (UniProt Q16595); test: Simoa sandwich 3-step; capture Ab-3; frataxin 100 pg/mL
[2] = target: Recombinant, his tagged full length human frataxin protein (Abcam ab95502) (human) (UniProt Q16595); test: Simoa sandwich 3-step; capture Ab-5
[3] = target: Recombinant, his tagged full length human frataxin protein (Abcam ab95502) (human) (UniProt Q16595); test: Simoa sandwich 3-step; capture Ab-1; frataxin 1000 pg/mL
[4] = target: Recombinant, his tagged full length human frataxin protein (Abcam ab95502) (human) (UniProt Q16595); test: Simoa sandwich 3-step; capture Ab-2; frataxin 100 pg/mL
[5] = target: Recombinant, his tagged full length human frataxin protein (Abcam ab95502) (human) (UniProt Q16595); test: Simoa sandwich 3-step; capture Ab-3; frataxin 1000 pg/mL
[6] = target: Recombinant, his tagged full length human frataxin protein (Abcam ab95502) (human) (UniProt Q16595); test: Simoa sandwich 3-step; capture Ab-1; frataxin 100 pg/mL
[7] = target: Recombinant, his tagged full length human frataxin protein (Abcam ab95502) (human) (UniProt Q16595); test: Simoa sandwich 3-step; capture Ab-5; frataxin 100 pg/mL
[8] = target: Recombinant, his tagged full length human frataxin protein (Abcam ab95502) (human) (UniProt Q16595); test: Simoa sandwich 3-step; capture Ab-5; frataxin 1000 pg/mL
[9] = target: Recombinant, his tagged full length human frataxin protein (Abcam ab95502) (human) (UniProt Q16595); test: Simoa sandwich 3-step; capture Ab-2; frataxin 1000 pg/mL
[10] = target: Recombinant, his tagged full length human frataxin protein (Abcam ab95502) (human) (UniProt Q16595); test: Simoa sandwich 3-step; capture Ab-2
[11] = target: Recombinant, his tagged full length human frataxin protein (Abcam ab95502) (human) (UniProt Q16595); test: Simoa sandwich 3-step; capture Ab-3
[12] = target: Recombinant, his tagged full length human frataxin protein (Abcam ab95502) (human) (UniProt Q16595); test: Simoa sandwich 3-step; capture Ab-5; frataxin 10000 pg/mL
[13] = target: Recombinant, his tagged full length human frataxin protein (Abcam ab95502) (human) (UniProt Q16595); test: Simoa sandwich 3-step; capture Ab-4; frataxin 1000 pg/mL
[14] = target: Recombinant, his tagged full length human frataxin protein (Abcam ab95502) (human) (UniProt Q16595); test: Simoa sandwich 3-step; capture Ab-1; frataxin 10000 pg/mL
[15] = target: Recombinant, his tagged full length human frataxin protein (Abcam ab95502) (human) (UniProt Q16595); test: Simoa sandwich 3-step; capture Ab-4; frataxin 100 pg/mL
[16] = target: Recombinant, his tagged full length human frataxin protein (Abcam ab95502) (human) (UniProt Q16595); test: Simoa sandwich 3-step; capture Ab-2; frataxin 10000 pg/mL
[17] = target: Recombinant, his tagged full length human frataxin protein (Abcam ab95502) (human) (UniProt Q16595); test: Simoa sandwich 3-step; capture Ab-4
[18] = target: Recombinant, his tagged full length human frataxin protein (Abcam ab95502) (human) (UniProt Q16595); test: Simoa sandwich 3-step; capture Ab-1
[19] = target: Recombinant, his tagged full length human frataxin protein (Abcam ab95502) (human) (UniProt Q16595); test: Simoa sandwich 3-step; capture Ab-1; frataxin 100 pg/mL; remark: listed apart in the source
[20] = target: Recombinant, his tagged full length human frataxin protein (Abcam ab95502) (human) (UniProt Q16595); test: Simoa sandwich 2-step; capture Ab-1; frataxin 100 pg/mL
[21] = target: Recombinant, his tagged full length human frataxin protein (Abcam ab95502) (human) (UniProt Q16595); test: Simoa sandwich 3-step; capture Ab-2; frataxin 10000 pg/mL; remark: listed apart in the source
[22] = target: Recombinant, his tagged full length human frataxin protein (Abcam ab95502) (human) (UniProt Q16595); test: Simoa sandwich 2-step; capture Ab-2; frataxin 10000 pg/mL
[23] = target: Recombinant, his tagged full length human frataxin protein (Abcam ab95502) (human) (UniProt Q16595); test: Simoa sandwich 3-step; capture Ab-4; frataxin 10000 pg/mL
[24] = target: Recombinant, his tagged full length human frataxin protein (Abcam ab95502) (human) (UniProt Q16595); test: Simoa sandwich 3-step; capture Ab-2; frataxin 1000 pg/mL; remark: listed apart in the source
[25] = target: Recombinant, his tagged full length human frataxin protein (Abcam ab95502) (human) (UniProt Q16595); test: Simoa sandwich 3-step; capture Ab-2; remark: listed apart in the source
[26] = target: Recombinant, his tagged full length human frataxin protein (Abcam ab95502) (human) (UniProt Q16595); test: Simoa sandwich 3-step; capture Ab-1; remark: listed apart in the source
[27] = target: Recombinant, his tagged full length human frataxin protein (Abcam ab95502) (human) (UniProt Q16595); test: Simoa sandwich 3-step; capture Ab-2; frataxin 100 pg/mL; remark: listed apart in the source
[28] = target: Recombinant, his tagged full length human frataxin protein (Abcam ab95502) (human) (UniProt Q16595); test: Simoa sandwich 2-step; capture Ab-2
[29] = target: Recombinant, his tagged full length human frataxin protein (Abcam ab95502) (human) (UniProt Q16595); test: Simoa sandwich 3-step; capture Ab-1; frataxin 1000 pg/mL; remark: listed apart in the source
[30] = target: Recombinant, his tagged full length human frataxin protein (Abcam ab95502) (human) (UniProt Q16595); test: Simoa sandwich 2-step; capture Ab-2; frataxin 1000 pg/mL
[31] = target: Recombinant, his tagged full length human frataxin protein (Abcam ab95502) (human) (UniProt Q16595); test: Simoa sandwich 2-step; capture Ab-1
[32] = target: Recombinant, his tagged full length human frataxin protein (Abcam ab95502) (human) (UniProt Q16595); test: Simoa sandwich 2-step; capture Ab-1; frataxin 10000 pg/mL
[33] = target: Recombinant, his tagged full length human frataxin protein (Abcam ab95502) (human) (UniProt Q16595); test: Simoa sandwich 3-step; capture Ab-3; frataxin 10000 pg/mL
[34] = target: Recombinant, his tagged full length human frataxin protein (Abcam ab95502) (human) (UniProt Q16595); test: Simoa sandwich 2-step; capture Ab-1; frataxin 1000 pg/mL
[35] = target: Recombinant, his tagged full length human frataxin protein (Abcam ab95502) (human) (UniProt Q16595); test: Simoa sandwich 3-step; capture Ab-1; frataxin 10000 pg/mL; remark: listed apart in the source
[36] = target: Recombinant, his tagged full length human frataxin protein (Abcam ab95502) (human) (UniProt Q16595); test: Simoa sandwich 2-step; capture Ab-2; frataxin 100 pg/mL

UniProt Q16595, sequence (Q16595 42-210): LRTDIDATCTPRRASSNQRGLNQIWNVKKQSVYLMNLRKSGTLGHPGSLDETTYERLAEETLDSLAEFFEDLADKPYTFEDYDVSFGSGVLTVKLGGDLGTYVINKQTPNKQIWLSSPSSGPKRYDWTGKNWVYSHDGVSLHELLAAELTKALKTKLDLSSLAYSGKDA

## Ab-1, unconjugated mouse monoclonal to human Frataxin (LSBio LS-C760752) (antibody)
[1]
  Ave AEB: 1.92 AEB
  S/B: 2.05
[2]
  LOD: 4.85 pg/mL
[3]
  Ave AEB: 0.0953 AEB
[4]
  Ave AEB: 0.0069 AEB
  S/B: 4.45
[5]
  Ave AEB: 10.3 AEB
  S/B: 11
[6]
  Ave AEB: 0.007 AEB
[7]
  Ave AEB: 0.834 AEB
  S/B: 9.35
[8]
  Ave AEB: 8.56 AEB
  S/B: 95.9
[9]
  Ave AEB: 0.0712 AEB
  S/B: 46.2
[10]
  LOD: 7.78 pg/mL
[11]
  LOD: 23.8 pg/mL
[12]
  Ave AEB: 28.9 AEB
  S/B: 324
[13]
  Ave AEB: 12.4 AEB
  S/B: 3.63
[14]
  Ave AEB: 1.19 AEB
[15]
  Ave AEB: 4.72 AEB
  S/B: 1.37
[16]
  Ave AEB: 1.36 AEB
  S/B: 885
[17]
  LOD: 66 pg/mL

## Ab-2, unconjugated mouse monoclonal to Human Frataxin FXN (LSBio LS-C755462) (antibody)
[1]
  Ave AEB: 2.42 AEB
  S/B: 2.36
[2]
  LOD: 4.43 pg/mL
[3]
  Ave AEB: 0.107 AEB
  S/B: 90.8
[4]
  Ave AEB: 0.0068 AEB
  S/B: 5.41
[5]
  Ave AEB: 11.6 AEB
  S/B: 11.3
[6]
  Ave AEB: 0.0088 AEB
  S/B: 7.44
[7]
  Ave AEB: 0.961 AEB
  S/B: 9.84
[8]
  Ave AEB: 9.35 AEB
  S/B: 95.7
[9]
  Ave AEB: 0.101 AEB
  S/B: 80.4
[10]
  LOD: 9.76 pg/mL
[18]
  LOD: 5.71 pg/mL
[11]
  LOD: 18 pg/mL
[12]
  Ave AEB: 29.5 AEB
  S/B: 302
[13]
  Ave AEB: 13.6 AEB
  S/B: 3.71
[14]
  Ave AEB: 1.05 AEB
  S/B: 892
[15]
  Ave AEB: 4.73 AEB
  S/B: 1.29
[16]
  Ave AEB: 0.83 AEB
  S/B: 659
[17]
  LOD: 89.6 pg/mL

## Ab-5, rabbit polyclonal to recombinant full-length Human Frataxin (Abcam ab175402) (antibody)
[19]
  Ave AEB: 0.152 AEB
  S/B: 6.28
[1]
  Ave AEB: 0.469 AEB
  S/B: 1.8
[2]
  LOD: 7.44 pg/mL
[3]
  Ave AEB: 0.998 AEB
  S/B: 101
[4]
  Ave AEB: 0.115 AEB
  S/B: 7.3
[20]
  Ave AEB: 1.61 AEB
  S/B: 27.6
[5]
  Ave AEB: 2.64 AEB
  S/B: 10.1
[21]
  Ave AEB: 9.03 AEB
  S/B: 434
[6]
  Ave AEB: 0.106 AEB
  S/B: 10.8
[22]
  Ave AEB: 28.4 AEB
  S/B: 497
[23]
  Ave AEB: 23.7 AEB
  S/B: 44.1
[24]
  Ave AEB: 1.59 AEB
  S/B: 76.4
[25]
  LOD: 4.9 pg/mL
[7]
  Ave AEB: 0.573 AEB
  S/B: 5.82
[8]
  Ave AEB: 5.53 AEB
  S/B: 56.2
[26]
  LOD: 5.12 pg/mL
[9]
  Ave AEB: 1.03 AEB
  S/B: 65
[10]
  LOD: 4.62 pg/mL
[27]
  Ave AEB: 0.16 AEB
  S/B: 7.69
[28]
  LOD: 1.88 pg/mL
[29]
  Ave AEB: 1.31 AEB
  S/B: 53.9
[18]
  LOD: 2.95 pg/mL
[11]
  LOD: 33.6 pg/mL
[30]
  Ave AEB: 13.1 AEB
  S/B: 228
[31]
  LOD: 1.27 pg/mL
[32]
  Ave AEB: 29.3 AEB
  S/B: 502
[33]
  Ave AEB: 20.5 AEB
  S/B: 78.8
[12]
  Ave AEB: 21.7 AEB
  S/B: 220
[34]
  Ave AEB: 12.4 AEB
  S/B: 212
[13]
  Ave AEB: 3.95 AEB
  S/B: 7.32
[35]
  Ave AEB: 8.37 AEB
  S/B: 346
[14]
  Ave AEB: 5.93 AEB
  S/B: 602
[15]
  Ave AEB: 0.814 AEB
  S/B: 1.51
[16]
  Ave AEB: 5.41 AEB
  S/B: 343
[17]
  LOD: 52.8 pg/mL
[36]
  Ave AEB: 1.49 AEB
  S/B: 26.1
